Measurements: patent US6087330A, “Process to inhibit binding of the integrin α4 β1 to VCAM-1 or fibronectin and cyclic peptides therefor” (Texas Biotechnology Corporation, priority 1998, dated 2000)
Bridges are numbered along the chain shown (N, C = ends). Where no end group is shown, it is not given here.

Target: T1, integrin α4 β1 binding to VCAM-1 (Homo sapiens, UniProt P05556+P13612)
T1 construct: endogenous in cells; host or cells: HL-60 cells (integrin α4β1); VCAM-IgG fusion made in house in transfected COS cells
Test: VCAM-1/α4 β1 Binding Assay (binding of labeled HL-60 cells to VCAM-IgG fusion protein on magnetic beads)
Assay type: cell-based
Conditions: 10 min at room temperature
Procedure: Peptides were assayed for their ability to inhibit the binding of the integrin α4 β1 to VCAM. […] The assays are described below.
VCAM-1/α4 β1 Binding Assay
The assay involves determining the ability of cells that express α4 β1 to bind directly to purified VCAM. The integrin-expressing cell type used in this assay was HL-60, a human promyelocytic line.
An expression vector was designed such that a region of VCAM known to bind the integrin was expressed as a fusion protein with mouse IgG. A cDNA containing the two N-terminal domains of human VCAM was generated by the polymerase chain reaction (PCR) from a full length VCAM cDNA. Similarly, a cDNA containing the hinge, CH2 and CH3 regions of mouse IgG, was amplified by PCR from cDNA made from total RNA isolated from the hybridoma cell line 402C10. […]
HL-60 cells were fluorescently labeled with Calcein AM C-3099 (Molecular Probes) and resuspended in 1 ml of binding buffer (Hank's balanced salt solution, pH 7.4, 1.0 mM CaCl2, 1.0 mM MgCl2). […] The remaining bound cells were lysed in 50 mM Tris, pH 7.4, 5.0 mM EDTA, 1.0% NP-40 and quantitated by fluorimetry using a Millipore Cytofluor 2350 fluorimeter. Dose response curves were calculated and IC50 values determined. Alternatively, the percent adhesion was determined at a single peptide concentration for comparison among peptides.

T1 sequence (P13612 34-1032): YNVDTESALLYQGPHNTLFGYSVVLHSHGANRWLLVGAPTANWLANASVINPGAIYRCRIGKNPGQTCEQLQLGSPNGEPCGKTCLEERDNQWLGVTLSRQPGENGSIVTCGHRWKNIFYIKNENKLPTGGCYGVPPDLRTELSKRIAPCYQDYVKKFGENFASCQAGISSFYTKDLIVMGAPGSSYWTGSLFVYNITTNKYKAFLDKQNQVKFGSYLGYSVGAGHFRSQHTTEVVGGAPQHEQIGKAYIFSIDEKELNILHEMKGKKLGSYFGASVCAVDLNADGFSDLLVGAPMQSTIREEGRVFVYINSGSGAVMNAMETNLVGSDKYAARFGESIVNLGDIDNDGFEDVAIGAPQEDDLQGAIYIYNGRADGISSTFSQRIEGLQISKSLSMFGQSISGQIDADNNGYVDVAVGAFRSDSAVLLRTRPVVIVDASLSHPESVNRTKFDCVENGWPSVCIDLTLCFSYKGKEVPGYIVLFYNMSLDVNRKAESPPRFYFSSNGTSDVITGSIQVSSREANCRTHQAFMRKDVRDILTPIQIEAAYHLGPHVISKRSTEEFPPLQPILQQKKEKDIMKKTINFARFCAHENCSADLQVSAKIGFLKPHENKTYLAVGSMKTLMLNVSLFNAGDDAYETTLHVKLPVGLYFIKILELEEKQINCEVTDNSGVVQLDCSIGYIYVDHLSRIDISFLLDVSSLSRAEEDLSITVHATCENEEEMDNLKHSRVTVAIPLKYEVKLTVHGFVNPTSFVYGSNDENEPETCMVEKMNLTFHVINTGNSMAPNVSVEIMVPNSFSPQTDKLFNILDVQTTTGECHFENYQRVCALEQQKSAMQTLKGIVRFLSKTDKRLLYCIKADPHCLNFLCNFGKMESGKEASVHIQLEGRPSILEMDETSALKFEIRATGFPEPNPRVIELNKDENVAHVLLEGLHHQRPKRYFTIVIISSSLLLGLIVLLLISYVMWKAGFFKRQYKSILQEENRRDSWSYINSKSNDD
T1 sequence (P05556 21-798): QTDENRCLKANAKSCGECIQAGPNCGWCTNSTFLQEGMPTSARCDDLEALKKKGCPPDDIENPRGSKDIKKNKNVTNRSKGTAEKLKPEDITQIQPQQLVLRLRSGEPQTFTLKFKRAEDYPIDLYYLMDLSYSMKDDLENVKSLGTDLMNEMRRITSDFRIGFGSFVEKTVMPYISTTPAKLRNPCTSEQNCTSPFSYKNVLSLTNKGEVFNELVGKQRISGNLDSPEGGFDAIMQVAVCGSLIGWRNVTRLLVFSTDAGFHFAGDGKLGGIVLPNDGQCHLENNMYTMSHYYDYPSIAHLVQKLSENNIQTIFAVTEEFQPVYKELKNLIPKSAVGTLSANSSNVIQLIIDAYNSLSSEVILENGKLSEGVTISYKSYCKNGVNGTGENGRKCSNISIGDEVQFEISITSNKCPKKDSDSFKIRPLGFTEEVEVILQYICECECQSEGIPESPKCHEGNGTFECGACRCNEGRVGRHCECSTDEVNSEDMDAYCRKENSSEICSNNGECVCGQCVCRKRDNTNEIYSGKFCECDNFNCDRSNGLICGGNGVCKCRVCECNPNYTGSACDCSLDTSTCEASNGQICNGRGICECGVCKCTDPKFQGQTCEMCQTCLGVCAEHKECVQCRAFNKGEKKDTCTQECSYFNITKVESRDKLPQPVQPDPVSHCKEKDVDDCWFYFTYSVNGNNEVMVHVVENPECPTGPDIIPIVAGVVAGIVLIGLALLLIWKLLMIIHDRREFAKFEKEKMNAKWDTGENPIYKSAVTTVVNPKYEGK

Row | Substance | concentration of peptide found to significantly inhibit the binding of α4 β1 integrin to VCAM-1
1 | Cys-Trp-Leu-Asp-Leu-Cys-acid (CWLDLC-OH; disulfide 1-6; not fully specified (N-terminus, bridges); printed as Cys-Trp-Leu-Asp-Leu-Cys-acid) [SEQ ID NO:28] | less than 10 μM
2 | Cys-Trp-Leu-Asp-Tyr-Cys-acid (CWLDYC-OH; disulfide 1-6; not fully specified (N-terminus, bridges); printed as Cys-Trp-Leu-Asp-Tyr-Cys-acid) [SEQ ID NO:29] | less than 10 μM
